From US20180273595A1 come the findings set out here.

The target of assay [1] is recombinant His-tagged full-length ERG (UniProt P11308). Description: OctetRED; Kd table of synthetic peptides on ERG.
The target is the same in assay [2]. In words: Kd table of synthetic peptides on ERG; assay not given.

recombinant His-tagged full-length ERG, sequence (P11308 whole entry): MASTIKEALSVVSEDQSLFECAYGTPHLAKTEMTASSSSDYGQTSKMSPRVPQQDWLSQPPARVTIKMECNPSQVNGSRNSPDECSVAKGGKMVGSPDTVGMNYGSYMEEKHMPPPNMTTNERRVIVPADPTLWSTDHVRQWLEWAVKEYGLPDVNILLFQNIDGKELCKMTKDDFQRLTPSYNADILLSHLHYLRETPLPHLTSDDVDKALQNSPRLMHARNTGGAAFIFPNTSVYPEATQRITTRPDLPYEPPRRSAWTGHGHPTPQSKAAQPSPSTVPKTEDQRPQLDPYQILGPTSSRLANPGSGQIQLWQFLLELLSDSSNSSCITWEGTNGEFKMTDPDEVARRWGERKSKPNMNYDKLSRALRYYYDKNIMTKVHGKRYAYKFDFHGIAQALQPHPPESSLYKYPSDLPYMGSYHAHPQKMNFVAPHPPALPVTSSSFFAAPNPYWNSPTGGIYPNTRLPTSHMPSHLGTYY

For orientation: Kd means the concentration at which binding is half-saturated. For “7-mer LPPYLFT capped at the C-terminus only (LPPYLFT-NH2) (peptide)”, the Kd in assay [1] is over 100 µM.

Regarding “EIP1 capped at both termini (Ac-LPPYLFT-NH2) (peptide)”, the Kd in assay [2] and in assay [1] was over 100 µM in each case.

With “3-mer PYL capped at both termini (Ac-PYL-NH2) (peptide)”, the Kd in assay [2] was determined as 7.5 µM.

Turning to “3-mer PYL capped at the N-terminus only (Ac-PYL) (peptide)”, the Kd in assay [2] is 8.7 µM.
